# Laboratory results reported in patent US20190298830A1 (SUZHOU GALAXY BIOPHARMA, published 2019).
# How the values were obtained:
# Assay in all cases: cell-based or functional assay
# [1] = target: T1, E2 envelope protein on HCV euvirus (HCVcc) particles, strain PR79 (1b) (Hepatitis C virus strain PR79 (1b))
# [2] = target: T2, E2 envelope protein on HCV euvirus (HCVcc) particles, strain JFH1 (2a) (Hepatitis C virus strain JFH1 (2a))
# [3] = target: T3, E2 envelope protein on HCV euvirus (HCVcc) particles, strain D183 (2a) (Hepatitis C virus strain D183 (2a))
# [4] = target: E2 envelope protein on HCV euvirus particles, strain PR52B6M (1b) (Hepatitis C virus strain PR52B6M (1b))
# [5] = target: E2 envelope protein on HCV euvirus (HCVcc) particles, strain PR52 (1b) (Hepatitis C virus strain PR52 (1b))
# [6] = target: E2 envelope protein on HCV euvirus (HCVcc) particles, strain PR26 (1b) (Hepatitis C virus strain PR26 (1b))
# [7] = target: E2 envelope protein on HCV euvirus (HCVcc) particles, strain Con1 (1b) (Hepatitis C virus strain Con1 (1b))
# [8] = target: T1, E2 envelope protein on HCV euvirus …; remark: listed apart in the source
# [9] = target: T2, E2 envelope protein on HCV euvirus …; remark: listed apart in the source
# [10] = target: E2 envelope protein on HCV euvirus (HCVcc) particles, strain PR63 (2a) (Hepatitis C virus strain PR63 (2a))
# [11] = target: T3, E2 envelope protein on HCV euvirus …; remark: listed apart in the source
# [12] = target: E2 envelope protein on HCV euvirus (HCVcc) particles, strain J8 (2b) (Hepatitis C virus strain J8 (2b))
# [13] = target: E2 envelope protein on HCV euvirus (HCVcc) particles, strain S52 (3a) (Hepatitis C virus strain S52 (3a))
# [14] = target: E2 envelope protein on HCV euvirus (HCVcc) particles, strain SA13 (5a) (Hepatitis C virus strain SA13 (5a))
# [15] = target: E2 envelope protein on HCV euvirus (HCVcc) particles, strain HK6a (6a) (Hepatitis C virus strain HK6a (6a))
binder,measurement,setting,value
"human monoclonal antibody 8D6 (antibody, V domains shown) VH: EVQLVQSGSELKKPGASLKLSCKASGYTYITPAMNWVRQAPGHGLEWMGGINTNTGNPTYAQGFAGRFVFSWDTSVSTAYLHISSLKTEDTAVYYCADTRIFSCRRGTCYGGFDVWGQGTMVTVSS VL: DIQMTQSPSSLSASVGDRITITCRASQSISNFLNWFQHRPGKAPKLLIYGATILQSGVPSRFSGSGSGTDFTLTISSLQPEDFATYYCQQSDSSTYIFGQGTKVEIK","inhibition rate of HCV euvirus, at antibody concentration higher than 0.4 µg/ml",[1],> 90%
same,"inhibition rate of HCV euvirus, at antibody concentration higher than 0.4 µg/ml",[2],> 90%
same,"inhibition rate of HCV euvirus, at antibody concentration higher than 0.4 µg/ml",[3],> 90%
same,"inhibition rate of HCV euvirus, at antibody concentration higher than 0.4 µg/ml",[4],> 90%
same,"IC50 (µg/ml), micro neutralization of HCV euvirus (NS5A-positive foci in Huh-7.5 cells)",[5],< 0.08 µg/mL
same,"IC50 (µg/ml), micro neutralization of HCV euvirus (NS5A-positive foci in Huh-7.5 cells)",[6],0.412 µg/mL
same,"IC50 (µg/ml), micro neutralization of HCV euvirus (NS5A-positive foci in Huh-7.5 cells)",[7],2.43 µg/mL
same,"IC50 (µg/ml), micro neutralization of HCV euvirus (NS5A-positive foci in Huh-7.5 cells)",[8],< 0.08 µg/mL
same,"IC50 (µg/ml), micro neutralization of HCV euvirus (NS5A-positive foci in Huh-7.5 cells)",[9],0.003 µg/mL
same,"IC50 (µg/ml), micro neutralization of HCV euvirus (NS5A-positive foci in Huh-7.5 cells)",[10],< 0.016 µg/mL
same,"IC50 (µg/ml), micro neutralization of HCV euvirus (NS5A-positive foci in Huh-7.5 cells)",[11],< 0.08 µg/mL
same,"IC50 (µg/ml), micro neutralization of HCV euvirus (NS5A-positive foci in Huh-7.5 cells)",[12],10 µg/mL
same,"IC50 (µg/ml), micro neutralization of HCV euvirus (NS5A-positive foci in Huh-7.5 cells)",[13],0.01 µg/mL
same,"IC50 (µg/ml), micro neutralization of HCV euvirus (NS5A-positive foci in Huh-7.5 cells)",[14],0.087 µg/mL
same,"IC50 (µg/ml), micro neutralization of HCV euvirus (NS5A-positive foci in Huh-7.5 cells)",[15],0.0015 µg/mL
